Measured values from patent US20240132578A1.

Legend:
Assay in all cases: cell-based or functional assay
[1] = target: HIV-1 92TH021 Env (HIV-1)
[2] = target: HIV-1 Env of isolate 92RW009 (clade A pseudovirus) (HIV-1)
[3] = target: HIV-1 Env of isolate 92UG031 (clade A pseudovirus) (HIV-1)
[4] = target: HIV-1 Env of isolate JRCSF (Clade B) (HIV-1) (UniProt P20871)
[5] = target: HIV-1 Env of isolate MGRM-AE-003 (pseudovirus) (HIV-1)
[6] = target: HIV-1 Env of isolate MGRM-AG-011 (pseudovirus) (HIV-1)
[7] = target: HIV-1 Env of isolate MGRM-AG-013 (pseudovirus) (HIV-1)
[8] = target: HIV-1 Env of isolate MGRM-D-026 (clade D pseudovirus) (HIV-1)
[9] = target: HIV-1 Env of isolate MGRM-G-009 (subtype G) (HIV-1)
[10] = target: HIV-1 Env of isolate MGRM-G-015 (subtype G) (HIV-1)
[11] = target: HIV-1 Env of isolate MGRM-G-019 (subtype G) (HIV-1)
[12] = target: HIV-1 Env of isolate PVO.4 (Acute), clade B (HIV-1)
[13] = target: HIV-1 Env of isolate VLGCA1 (pseudovirus) (HIV-1)
[14] = target: HIV-1 Env of pseudovirus MGRM-G-019 (HIV-1)
[15] = target: HIV-1 Env of pseudovirus MGRM-G-024 (HIV-1)
[16] = target: HIV-1 IAVI-C18 envelope (Env) on pseudovirus (HIV-1)
HIV-1 JRCSF Env (HIV-1) = HIV-1 JRCSF Env (HIV-1) (UniProt P20871)
[17] = target: HIV-1 MGRM-AE-001 Env (pseudovirus) (HIV-1)
[18] = target: HIV-1 MGRM-AG-002 Env (pseudovirus) (HIV-1)
[19] = target: HIV-1 Env of isolate MGRM-F1-022 (pseudovirus) (HIV-1)
[20] = target: HIV-1 envelope glycoprotein (Env) of isolate 93TH305, on pseudovirus (HIV-1)
aMLV envelope = target: aMLV envelope
[21] = target: HIV-1 Env of isolate MGRM-AG-003 (pseudovirus) (HIV-1)
[22] = target: HIV-1 Env of isolate MGRM-AG-009 (pseudovirus) (HIV-1)
[23] = target: HIV-1 Env of isolate 92RW008 (subtype A) (HIV-1)
[24] = target: HIV-1 Env of isolate 92UG005 (HIV-1)
[25] = target: HIV-1 Env of isolate MG RM-A-012 (pseudovirus) (HIV-1)
[26] = target: HIV-1 Env of isolate MGRM-C-019 (subtype C), on pseudovirus (HIV-1)
[27] = target: HIV-1 Env of isolate MGRM-D-005 (HIV-1)
[28] = target: HIV-1 Env of pseudovirus isolate APV-17 (clade B) (HIV-1)
[29] = target: HIV-1 Env of pseudovirus isolate MGRM-Chronic-B-003 (clade B) (HIV-1)
[30] = target: HIV-1 Env of pseudovirus isolate MGRM-Chronic-B-008 (clade B) (HIV-1)
[31] = target: HIV-1 Env of isolate 92UG046 (pseudovirus) (HIV-1)
[32] = target: HIV-1 Env of isolate 92WR009 (pseudovirus) (HIV-1)
[33] = target: HIV-1 Env of isolate MGRM-AE-003 (subtype AE) (HIV-1)
[34] = target: HIV-1 Env of isolate MGRM-AE-005 (subtype AE) (HIV-1)
[35] = target: HIV-1 Env of isolate MGRM-D-011 (pseudovirus) (HIV-1)
[36] = target: HIV-1 JR-CSF Env L416A (HIV-1 (isolate JR-CSF)) (UniProt P20871)
[37] = target: HIV-1 JR-CSF Env W395A (HIV-1 (isolate JR-CSF)) (UniProt P20871)
[38] = target: HIV-1 Env of pseudovirus MGRM-D-014 (HIV-1)

Chain of 4995_P16 (PGT-145) (antibody) (VH): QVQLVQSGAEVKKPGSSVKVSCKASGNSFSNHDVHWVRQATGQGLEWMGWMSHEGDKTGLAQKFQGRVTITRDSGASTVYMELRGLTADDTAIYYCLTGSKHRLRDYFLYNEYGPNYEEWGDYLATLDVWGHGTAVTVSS
Chain of 4995_P16 (PGT-145) (antibody) (VL): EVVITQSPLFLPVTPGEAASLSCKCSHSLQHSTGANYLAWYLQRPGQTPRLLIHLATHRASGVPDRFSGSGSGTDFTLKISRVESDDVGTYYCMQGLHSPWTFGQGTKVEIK
Chain of 4993_K13 (PGT-141) (antibody) (VH): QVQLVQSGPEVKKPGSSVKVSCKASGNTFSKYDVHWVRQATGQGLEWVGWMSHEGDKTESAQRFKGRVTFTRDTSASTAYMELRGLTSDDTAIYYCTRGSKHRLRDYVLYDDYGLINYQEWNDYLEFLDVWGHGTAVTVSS
Chain of 4993_K13 (PGT-141) (antibody) (VL): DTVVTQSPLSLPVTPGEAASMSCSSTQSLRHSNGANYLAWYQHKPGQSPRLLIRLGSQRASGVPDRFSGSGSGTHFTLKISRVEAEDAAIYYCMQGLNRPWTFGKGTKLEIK
Chain of 4980_N08 (PGT-143) (antibody) (VH): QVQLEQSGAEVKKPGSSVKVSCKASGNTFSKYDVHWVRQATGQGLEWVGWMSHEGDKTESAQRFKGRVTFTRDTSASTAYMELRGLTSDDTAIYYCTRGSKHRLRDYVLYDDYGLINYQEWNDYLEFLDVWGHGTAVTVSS
Chain of 4980_N08 (PGT-143) (antibody) (VL): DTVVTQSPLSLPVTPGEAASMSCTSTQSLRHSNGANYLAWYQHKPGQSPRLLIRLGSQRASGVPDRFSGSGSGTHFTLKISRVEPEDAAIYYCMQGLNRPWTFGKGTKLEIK
Chain of 4970_K22 (PGT-144) (antibody) (VH): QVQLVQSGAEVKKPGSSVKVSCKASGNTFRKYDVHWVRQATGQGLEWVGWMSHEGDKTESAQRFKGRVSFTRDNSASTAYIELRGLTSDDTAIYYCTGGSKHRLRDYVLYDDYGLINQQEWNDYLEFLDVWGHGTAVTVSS
Chain of 4970_K22 (PGT-144) (antibody) (VL): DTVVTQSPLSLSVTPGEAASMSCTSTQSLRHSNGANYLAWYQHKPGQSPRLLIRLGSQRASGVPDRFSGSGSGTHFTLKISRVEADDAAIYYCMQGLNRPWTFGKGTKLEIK
Chain of 4995_E20 (PGT-142) (antibody) (VH): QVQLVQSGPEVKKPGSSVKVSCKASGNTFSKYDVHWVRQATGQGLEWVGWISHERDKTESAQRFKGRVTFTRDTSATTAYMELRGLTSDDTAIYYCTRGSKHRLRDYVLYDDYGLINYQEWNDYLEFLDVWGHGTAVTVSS

Row | Substance | IC50 (µg/mL), pseudovirus neutralization [9] | IC50 (µg/mL), pseudovirus neutralization [10] | IC50 (µg/mL), pseudovirus neutralization [11] | IC50, pseudovirus neutralization [23] | IC50 (µg/mL), pseudovirus neutralization [24] | IC50 (µg/mL), single-round pseudovirus neutralization [25] | IC50 (µg/mL), single-round pseudovirus neutralization [5] | IC50, single-round pseudovirus neutralization [26] | IC50 (µg/mL), pseudovirus neutralization [27] | IC50 (µg/mL), single-round pseudovirus neutralization [13] | IC50, pseudovirus neutralization [28] | IC50, pseudovirus neutralization [29] | IC50, pseudovirus neutralization [30] | IC50, pseudovirus neutralization [38] | other results
1 | 1496_C09 (PG9) (TCN-109) (antibody) | 10.7 µg/mL | 6.6 µg/mL | 14.6 µg/mL |  |  |  |  |  |  |  |  |  |  |  | IC50, pseudovirus neutralization [1]: 0.103 µg/mL; IC50 (µg/ml), pseudovirus neutralization [2]: 0.03 µg/mL; IC50 (µg/ml), pseudovirus neutralization [3]: 3.08 µg/mL; IC90 (neutralization of pseudovirus) [4]: < 0.0025 µg/mL; Neutralization IC80 [4]: 0.0181 µg/mL; Neutralization IC90 [4]: 0.0391 µg/mL; Neutralization IC95 [4]: 0.0798 µg/mL; neutralization IC50 [4]: 0.0048 µg/mL; IC50 (µg/mL), pseudovirus neutralization [5]: 0.044 µg/mL; IC50 (µg/mL), pseudovirus neutralization [6]: 0.007 µg/mL; IC50 (µg/mL), pseudovirus neutralization [7]: 0.259 µg/mL; IC50, pseudovirus neutralization [8]: 17.5 µg/mL; IC50 (µg/ml), pseudovirus neutralization [12]: 4.01 µg/mL; IC50 (µg/mL), pseudovirus neutralization [13]: 0.069 µg/mL; IC50 (µg/ml), pseudovirus neutralization [14]: 0.67 µg/mL; IC50 (µg/ml), pseudovirus neutralization [15]: 0.07 µg/mL; neutralization IC50 [16]: 0.0535 µg/mL; IC50, pseudovirus neutralization (HIV-1 JRCSF Env (HIV-1)): 0.0048 µg/mL; IC50 (µg/ml), pseudovirus neutralization [17]: 2.97 µg/mL; IC50 (µg/ml), pseudovirus neutralization [18]: 0.04 µg/mL
2 | 4838_L06 (PGT-121) (antibody) |  |  |  |  |  |  |  |  |  |  |  |  |  |  | IC50, pseudovirus neutralization [1]: > 10 µg/mL; IC50 (µg/mL), pseudovirus neutralization [19]: 0.104 µg/mL; IC50, pseudovirus neutralization [20]: 0.007 µg/mL; IC50, pseudovirus neutralization (aMLV envelope): > 10 µg/mL
3 | 4877_D15 (PGT-122) (antibody) |  |  |  |  |  |  |  |  |  |  |  |  |  |  | IC50, pseudovirus neutralization [1]: > 10 µg/mL; IC50 (µg/mL), pseudovirus neutralization [21]: 43.7 µg/mL; IC50 (µg/mL), pseudovirus neutralization [22]: 0.128 µg/mL; IC50 (µg/mL), pseudovirus neutralization [6]: > 50 µg/mL; IC50 (µg/mL), pseudovirus neutralization [7]: 0.521 µg/mL; IC50 (µg/mL), pseudovirus neutralization [19]: 0.277 µg/mL; IC50, pseudovirus neutralization (HIV-1 JRCSF Env (HIV-1)): 0.0727 µg/mL; IC50, pseudovirus neutralization [20]: 0.013 µg/mL; IC50, pseudovirus neutralization (aMLV envelope): > 10 µg/mL
4 | 4970_K22 (PGT-144) (antibody) | > 50 µg/mL | > 50 µg/mL | > 50 µg/mL | > 50 µg/mL | > 50 µg/mL | > 50 µg/mL | > 50 µg/mL | 0.513 µg/mL | 14.8 µg/mL | > 50 µg/mL | 10.3 µg/mL | 7.41 µg/mL | > 50 µg/mL |  | 
5 | 4980_N08 (PGT-143) (antibody) | 2.97 µg/mL | > 50 µg/mL | 4.77 µg/mL | 0.385 µg/mL | > 50 µg/mL | > 50 µg/mL | > 50 µg/mL | 0.004 µg/mL | 1.41 µg/mL | 17.4 µg/mL | 1.11 µg/mL | 0.854 µg/mL | > 50 µg/mL |  | 
6 | 4993_K13 (PGT-141) (antibody) | 1.89 µg/mL | > 50 µg/mL | 20.3 µg/mL | 0.579 µg/mL | > 5 µg/mL | > 50 µg/mL | > 50 µg/mL | 0.008 µg/mL | 5.15 µg/mL | 2.07 µg/mL | 0.59 µg/mL | 0.4 µg/mL | > 50 µg/mL |  | 
7 | 4995_E20 (PGT-142) (antibody) | 2.81 µg/mL | > 50 µg/mL | 5.95 µg/mL | 0.447 µg/mL | > 50 µg/mL | > 50 µg/mL | > 50 µg/mL | 0.003 µg/mL | 1.15 µg/mL | 2.75 µg/mL | 0.628 µg/mL | 0.484 µg/mL | > 50 µg/mL |  | 
8 | 4995_P16 (PGT-145) (antibody) | 0.982 µg/mL | 10.5 µg/mL | 0.041 µg/mL | 0.4 µg/mL | > 50 µg/mL | 0.23 µg/mL | 0.552 µg/mL | 0.005 µg/mL | 10.4 µg/mL | 8.01 µg/mL | 0.488 µg/mL | 0.045 µg/mL | 1.9 µg/mL |  | 
9 | 5114_A19 (PGT-128) (antibody) |  |  |  |  |  |  |  |  |  |  |  |  |  |  | IC50 (µg/mL), pseudovirus neutralization [31]: > 50 µg/mL; IC50 (µg/mL), pseudovirus neutralization [32]: 0.812 µg/mL; IC50, pseudovirus neutralization [33]: 0.18 µg/mL; IC50, pseudovirus neutralization [34]: 0.032 µg/mL; IC50 (µg/mL), pseudovirus neutralization [35]: 0.007 µg/mL; Fold IC50 increase relative to wild-type (pseudovirus neutralization) [36]: 1.1 fold; Fold IC50 increase relative to wild-type (pseudovirus neutralization) [37]: 0.8 fold
10 | 5136_H01 (PGT-131) (antibody) |  |  |  |  |  |  |  |  |  |  |  |  |  |  | IC50 (µg/mL), pseudovirus neutralization [31]: > 50 µg/mL; IC50 (µg/mL), pseudovirus neutralization [32]: 3.12 µg/mL; IC50, pseudovirus neutralization [33]: 1.41 µg/mL; IC50, pseudovirus neutralization [34]: 0.017 µg/mL; IC50 (µg/mL), pseudovirus neutralization [35]: 0.756 µg/mL; Fold IC50 increase relative to wild-type (pseudovirus neutralization) [36]: 1 fold; Fold IC50 increase relative to wild-type (pseudovirus neutralization) [37]: 0.5 fold
11 | 5329_C19 (PGT-136) (antibody) |  |  |  |  |  |  |  |  |  |  |  |  |  |  | IC50 (µg/mL), pseudovirus neutralization [31]: > 50 µg/mL; IC50 (µg/mL), pseudovirus neutralization [32]: > 50 µg/mL; IC50, pseudovirus neutralization [33]: > 50 µg/mL; IC50, pseudovirus neutralization [34]: > 50 µg/mL; IC50 (µg/mL), pseudovirus neutralization [35]: > 50 µg/mL
12 | 5345_I01 (PGT-137) (antibody) |  |  |  |  |  |  |  |  |  |  |  |  |  |  | IC50 (µg/mL), pseudovirus neutralization [31]: > 50 µg/mL; IC50 (µg/mL), pseudovirus neutralization [32]: > 50 µg/mL; IC50, pseudovirus neutralization [33]: > 50 µg/mL; IC50, pseudovirus neutralization [34]: > 50 µg/mL; IC50 (µg/mL), pseudovirus neutralization [35]: 6.3 µg/mL
13 | PGT-141 (4964_G22; 4993_K13) (antibody) |  |  |  |  |  |  |  |  |  |  |  |  |  | 0.01 µg/mL | 
14 | PGT-142 (4995_E20) (antibody) |  |  |  |  |  |  |  |  |  |  |  |  |  | 0.005 µg/mL | 
15 | PGT-143 (4980_N08) (antibody) |  |  |  |  |  |  |  |  |  |  |  |  |  | 0.009 µg/mL | 
16 | PGT-144 (4970_K22) (antibody) |  |  |  |  |  |  |  |  |  |  |  |  |  | 0.113 µg/mL | 
17 | PGT-145 (4995_P16) (antibody) |  |  |  |  |  |  |  |  |  |  |  |  |  | 2.51 µg/mL | 
18 | PGV04 (antibody) | 0.043 µg/mL | 0.333 µg/mL | 0.027 µg/mL |  |  |  |  |  |  |  |  |  |  |  | IC50 (µg/mL), pseudovirus neutralization [5]: 6.4 µg/mL; IC50 (µg/mL), pseudovirus neutralization [21]: 0.058 µg/mL; IC50 (µg/mL), pseudovirus neutralization [22]: 0.148 µg/mL; IC50 (µg/mL), pseudovirus neutralization [6]: 0.071 µg/mL; IC50 (µg/mL), pseudovirus neutralization [7]: 0.03 µg/mL; IC50 (µg/mL), pseudovirus neutralization [13]: 0.024 µg/mL
19 | VRC01 (antibody) | 0.073 µg/mL | 0.548 µg/mL | 0.06 µg/mL | 0.037 µg/mL | 0.576 µg/mL | > 50 µg/mL | 0.685 µg/mL | 1.13 µg/mL | > 50 µg/mL | 0.163 µg/mL | 0.477 µg/mL | 0.1 µg/mL | 0.155 µg/mL | 0.332 µg/mL | 
